Laboratory results published in PMC5912465, “The N-terminal domain of a tick evasin is critical for chemokine binding and neutralization and confers specific binding activity to other evasins” (The Journal of Biological Chemistry, 2018).

B1: CCL8 (human chemokine panel) (ligand, UniProt P80075 24-99, looked up)
chain: QPDSVSIPITCCFNVINRKIPIQRLESYTRITNIQCPKEAVIFKTKRGKEVCADPKERWVRDSMKHLDQIFQNLKP
notes: also called MCP-2
B2: human CCL8 (residues Gln-24 to Pro-99), expressed in E. coli (ligand, UniProt P80075 24-99, looked up)
chain: B1 chain
notes: also called Purified CCL8
B3: CCL3 (ligand, human, UniProt P10147 24-92, looked up)
chain: SLAADTPTACCFSYTSRQIPQNFIADYFETSSQCSKPGVIFLTKRSRQVCADPSEEWVQKYVSDLELSA
B4: CCL7 (ligand)
chain: not shown
notes: also called MCP-3
B5: CCL11 (ligand)
chain: not shown
B6: CCL23 (ligand, human, UniProt P55773 22-120, looked up)
chain: RVTKDAETEFMMSKLPLENPVLLDRFHATSADCCISYTPRSIPCSLLESYFETNSECSKPGVIFLTKKGRRFCANPSDKQVQVCMRMLKLDTRIKTRKN
B7: CCL14 (ligand, human, UniProt Q16627 20-93, looked up)
chain: TKTESSSRGPYHPSECCFTYTTYKIPRQRIMDYYETNSQCSKPGIVFITKRGHSVCTNPSDKWVQDYIKDMKEN
B8: CCL1 (ligand, human, UniProt P22362 24-96, looked up)
chain: KSMQVPFSRCCFSFAEQEIPLRAILCYRNTSSICSNEGLIFKLKRGKEACALDTVGWVQRHRKMLRHCPSKRK
B9: CCL3L1 (ligand, human, UniProt P16619 24-93, looked up)
chain: APLAADTPTACCFSYTSRQIPQNFIADYFETSSQCSKPSVIFLTKRGRQVCADPSEEWVQKYVSDLELSA
B10: CCL16 (ligand, human, UniProt O15467 24-120, looked up)
chain: QPKVPEWVNTPSTCCLKYYEKVLPRRLVVGYRKALNCHLPAIIFVTKRNREVCTNPNDDWVQEYIKDPNLPLLPTRNLSTVKIITAKNGQPQLLNSQ
B11: CCL18 (ligand, human, UniProt P55774 21-89, looked up)
chain: AQVGTNKELCCLVYTSWQIPQKFIVDYSETSPQCPKPGVILLTKRGRQICADPNKKWVQKYISDLKLNA

Columns and labels:
Conditions in all cases: both partners purified
[1] = biological target: T1, partially deglycosylated N-terminally tagged P672 (Rhipicephalus pulchellus, UniProt L7MC74 22-125); test: BLI
T1 sequence: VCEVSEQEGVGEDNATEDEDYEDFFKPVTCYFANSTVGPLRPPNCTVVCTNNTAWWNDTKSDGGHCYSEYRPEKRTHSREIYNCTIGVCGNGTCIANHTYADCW

[2] = biological target: T2, P672 with residues Val-1—Thr-16 truncated (Rhipicephalus pulchellus, UniProt L7MC74 38-125); test: BLI
T2 sequence: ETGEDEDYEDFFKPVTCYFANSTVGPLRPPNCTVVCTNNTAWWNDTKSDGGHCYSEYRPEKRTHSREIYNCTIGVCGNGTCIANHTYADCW

[3] = biological target: T1, partially deglycosylated N-terminally …; test: native MS
[4] = biological target: T3, N-terminally tagged P672 (P672_RHIPU), glycosylated (Rhipicephalus pulchellus, UniProt L7MC74 22-125); test: BLI
T3 construct: source: HEK293F, transiently transfected, purified from culture supernatant (nickel IMAC, size exclusion chromatography)
T3 sequence: T1 sequence

Row | Binder | binding result [4] | Kd [4] [nM] | also measured
1 | B1 | – | – | Kd [1]: 72.5 nM; Kd [2]: 30.4 nM
2 | B2 | – | – | stoichiometry N [3]: 1
3 | B3 | binds | – | –
4 | B4 | binds | – | –
5 | B5 | – | < 10 | –
6 | B6 | – | < 10 | –
7 | B7 | – | < 10 | –
8 | B8 | binds | – | –
9 | B9 | binds | – | –
10 | B10 | binds | – | –
11 | B11 | – | < 10 | –
